The assay concerns the target Miro1-ABC (aa 1-592), C-terminal 6xHis-tag (human, UniProt Q8IXI2 1-592). In words: pull-down.

Miro1-ABC (aa 1-592), C-terminal 6xHis-tag, sequence (Q8IXI2 1-592): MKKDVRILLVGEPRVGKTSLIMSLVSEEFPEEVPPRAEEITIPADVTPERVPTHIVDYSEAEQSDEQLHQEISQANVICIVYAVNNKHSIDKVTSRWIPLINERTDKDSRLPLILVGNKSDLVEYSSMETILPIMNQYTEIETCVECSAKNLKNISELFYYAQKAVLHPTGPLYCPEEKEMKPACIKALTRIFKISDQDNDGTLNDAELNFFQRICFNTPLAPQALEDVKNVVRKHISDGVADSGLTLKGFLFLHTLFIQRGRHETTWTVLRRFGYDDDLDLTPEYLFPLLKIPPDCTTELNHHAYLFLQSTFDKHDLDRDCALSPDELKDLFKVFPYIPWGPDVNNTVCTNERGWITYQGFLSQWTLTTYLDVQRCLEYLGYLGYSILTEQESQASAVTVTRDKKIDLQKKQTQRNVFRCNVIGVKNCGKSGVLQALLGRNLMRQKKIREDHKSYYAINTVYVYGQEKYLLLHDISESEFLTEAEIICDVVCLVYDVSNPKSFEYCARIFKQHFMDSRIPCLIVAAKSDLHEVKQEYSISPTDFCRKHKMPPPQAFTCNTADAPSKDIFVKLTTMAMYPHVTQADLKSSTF

B1: Myo19 C-tail (aa 898-970)-FLAG (domain or fragment)
chain: not shown
As for B1, the binding result is “binds”.

For the origin of these results see article doi:10.1101/296376 (bioRxiv, 2018).
